Where two headings read alike, the source gives them in different places. Numbered stars: 1 amine (or outer) side, 2 acyl side, 3 side chain; on linkers, the order of the positions; unused ones are H or OH. Bridge positions count the residues as written; N and C are the ends. * marks the point of attachment. C20 diacid = O=C(O)CCCCCCCCCCCCCCCCCCC(=O)*; γGlu = O=C(O)[C@H](CCC(=O)[*:2])N[*:1]
T1: human calcitonin receptor (human, UniProt P30988 25-474)
T1 sequence (looked up): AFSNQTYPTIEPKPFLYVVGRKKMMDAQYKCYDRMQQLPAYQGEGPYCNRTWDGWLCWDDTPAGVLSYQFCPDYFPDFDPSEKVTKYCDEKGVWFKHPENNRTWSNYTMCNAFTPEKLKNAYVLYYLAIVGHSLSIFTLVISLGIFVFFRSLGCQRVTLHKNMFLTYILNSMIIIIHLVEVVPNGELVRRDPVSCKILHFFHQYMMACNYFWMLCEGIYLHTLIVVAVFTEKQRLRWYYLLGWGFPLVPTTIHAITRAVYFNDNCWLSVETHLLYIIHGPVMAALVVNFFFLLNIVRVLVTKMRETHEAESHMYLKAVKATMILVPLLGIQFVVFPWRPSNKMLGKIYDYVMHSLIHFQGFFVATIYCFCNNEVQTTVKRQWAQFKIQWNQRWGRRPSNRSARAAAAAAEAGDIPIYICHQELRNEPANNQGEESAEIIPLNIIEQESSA

T2: human amylin receptor (amylin 3(a) receptor: human calcitonin receptor plus RAMP-3) (human, UniProt P30988 25-474; O60896 24-148, limits assumed)
T2 sequence (looked up) 1: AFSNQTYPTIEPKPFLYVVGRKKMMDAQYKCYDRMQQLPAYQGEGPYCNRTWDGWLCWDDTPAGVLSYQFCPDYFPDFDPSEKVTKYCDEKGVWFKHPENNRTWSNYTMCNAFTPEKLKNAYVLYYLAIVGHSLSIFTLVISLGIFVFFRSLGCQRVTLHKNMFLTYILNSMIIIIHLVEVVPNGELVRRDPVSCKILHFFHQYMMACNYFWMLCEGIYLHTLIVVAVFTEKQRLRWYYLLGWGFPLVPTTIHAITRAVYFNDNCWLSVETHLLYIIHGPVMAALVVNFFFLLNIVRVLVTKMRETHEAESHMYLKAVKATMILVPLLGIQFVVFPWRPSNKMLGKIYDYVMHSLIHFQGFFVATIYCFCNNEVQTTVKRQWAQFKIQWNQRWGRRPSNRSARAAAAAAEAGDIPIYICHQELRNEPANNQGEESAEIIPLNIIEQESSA
T2 sequence (looked up) 2: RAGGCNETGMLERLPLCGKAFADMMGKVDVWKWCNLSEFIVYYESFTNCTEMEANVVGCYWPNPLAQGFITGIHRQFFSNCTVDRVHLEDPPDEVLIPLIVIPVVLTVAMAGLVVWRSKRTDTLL

T3: human amylin receptor (amylin 3(a) receptor: human calcitonin receptor with RAMP-3) (human, UniProt P30988 25-474; O60896 24-148)
T3 sequence (looked up) 1: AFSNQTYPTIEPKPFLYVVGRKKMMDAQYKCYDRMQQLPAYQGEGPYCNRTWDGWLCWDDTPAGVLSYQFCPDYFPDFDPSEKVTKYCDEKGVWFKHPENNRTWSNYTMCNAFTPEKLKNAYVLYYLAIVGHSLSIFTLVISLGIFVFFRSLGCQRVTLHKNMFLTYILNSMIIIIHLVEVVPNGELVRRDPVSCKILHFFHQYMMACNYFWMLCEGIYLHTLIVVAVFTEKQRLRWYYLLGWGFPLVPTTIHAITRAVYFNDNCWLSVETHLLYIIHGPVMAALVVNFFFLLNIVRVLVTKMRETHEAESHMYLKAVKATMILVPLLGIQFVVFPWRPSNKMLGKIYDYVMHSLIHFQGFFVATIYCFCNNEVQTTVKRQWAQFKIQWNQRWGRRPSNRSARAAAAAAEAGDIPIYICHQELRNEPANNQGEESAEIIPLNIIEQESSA
T3 sequence (looked up) 2: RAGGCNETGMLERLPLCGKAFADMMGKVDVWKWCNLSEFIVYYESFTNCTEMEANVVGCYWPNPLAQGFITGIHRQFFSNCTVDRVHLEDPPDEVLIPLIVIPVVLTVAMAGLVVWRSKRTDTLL

T4: human calcitonin receptor (human, UniProt P30988 25-474)
T4 sequence (looked up): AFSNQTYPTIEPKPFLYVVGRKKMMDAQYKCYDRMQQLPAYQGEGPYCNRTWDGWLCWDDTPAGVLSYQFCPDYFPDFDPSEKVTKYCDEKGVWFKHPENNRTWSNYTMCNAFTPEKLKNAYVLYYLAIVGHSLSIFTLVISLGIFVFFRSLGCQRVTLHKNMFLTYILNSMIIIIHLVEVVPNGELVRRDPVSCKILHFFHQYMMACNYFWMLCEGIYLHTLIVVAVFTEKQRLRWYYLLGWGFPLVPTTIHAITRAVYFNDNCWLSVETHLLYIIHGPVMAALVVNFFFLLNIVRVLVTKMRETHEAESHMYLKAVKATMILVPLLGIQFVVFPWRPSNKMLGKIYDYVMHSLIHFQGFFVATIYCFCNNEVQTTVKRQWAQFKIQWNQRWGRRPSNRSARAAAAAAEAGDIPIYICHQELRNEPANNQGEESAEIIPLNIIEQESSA


Experiments:
Experiment in all cases: cell-based or functional assay
[1] = target: T1, human calcitonin receptor
[2] = target: T2, human amylin receptor (amylin 3(a) …)
[3] = target: T3, human amylin receptor (amylin 3(a) …)
[4] = target: T4, human calcitonin receptor; remark: listed apart in the source

Binder | Ratio hCT/hAmylin funct. (hCTR EC50 against hAmylin-R EC50) [1] | hCTR funct. EC50 [1] [nM] | hAmylin-R funct. EC50 [2] [nM] | hAmylin-R funct. EC50 [3] [nM] | Ratio hCT/hAmylin funct. [4] | hCTR funct. EC50 [4] [nM]
KCNTATCATQRLANFLRHSSPNFGAIPSSTNVGRNTY (C20 diacid-gGlu on the alpha amino group of the N-terminal residue; Cys2-Cys7 disulfide and C-terminal amide as in human amylin, also called compound 39) [N^α1-[(4S)-4-carboxy-4-(19-carboxynonadecanoylamino)butanoyl]-[Arg17,Pro21,Pro27,Arg34]-h-amylin] | 11.6 | 2.52 | 0.217 |  |  | 
KCNTATCATQRLAEFLRHSSPNFGAIPSSTNVGSNTY (C20 diacid-gGlu-2xOEG on the alpha amino group of the N-terminal residue; disulfide bridge Cys2-Cys7; C-terminal amide, also called compound 19) |  |  |  | 0.307 | 17.4 | 5.32
KCNTATCATQRLANFLRHSSPNFGAIPSSTNVGSETY (C20 diacid-gGlu on the alpha amino group of the N-terminal residue; Cys2-Cys7 disulfide and C-terminal amide as in human amylin, also called compound 23) [N^α1-[(4S)-4-carboxy-4-(19-carboxynonadecanoylamino)butanoyl]-[Arg17,Pro21,Pro27,Glu35]-h-amylin] | 8.9 | 3.02 | 0.34 |  |  | 
{C20 diacid-γGlu}-KCNTATCATQRLAEFLRHSSPNFGAIPSSTPVGSNTY-NH2 (disulfide 2-7; SMILES CC[C@H](C)[C@H](NC(=O)[C@H](C)NC(=O)CNC(=O)[C@H](Cc1ccccc1)NC(=O)[C@H](CC(N)=O)NC(=O)[C@@H]1CCCN1C(=O)[C@H](CO)NC(=O)[C@H](CO)NC(=O)[C@H](Cc1c[nH]cn1)NC(=O)[C@H](CCCNC(=N)N)NC(=O)[C@H](CC(C)C)NC(=O)[C@H](Cc1ccccc1)NC(=O)[C@H](CCC(=O)O)NC(=O)[C@H](C)NC(=O)[C@H](CC(C)C)NC(=O)[C@H](CCCNC(=N)N)NC(=O)[C@H](CCC(N)=O)NC(=O)[C@@H](NC(=O)[C@H](C)NC(=O)[C@@H]1CSSC[C@H](NC(=O)[C@H](CCCCN)NC(=O)CC[C@H](NC(=O)CCCCCCCCCCCCCCCCCCC(=O)O)C(=O)O)C(=O)N[C@@H](CC(N)=O)C(=O)N[C@@H]([C@@H](C)O)C(=O)N[C@@H](C)C(=O)N[C@@H]([C@@H](C)O)C(=O)N1)[C@@H](C)O)C(=O)N1CCC[C@H]1C(=O)N[C@@H](CO)C(=O)N[C@@H](CO)C(=O)N[C@H](C(=O)N1CCC[C@H]1C(=O)N[C@H](C(=O)NCC(=O)N[C@@H](CO)C(=O)N[C@@H](CC(N)=O)C(=O)N[C@H](C(=O)N[C@@H](Cc1ccc(O)cc1)C(N)=O)[C@@H](C)O)C(C)C)[C@@H](C)O, also called compound 31) | 6.4 | 0.717 | 0.112 |  |  | 

Reference: US20140087995A1 (published 2014)
